According to publication PMC9677509 (Biochemistry, 2017):
Where a chain is given by its changes, count along the chain named. Names may count otherwise.

B1: human FLAG-tagged wild type histidyl-tRNA synthetase (HARS) (enzyme, UniProt P12081 1-509, looked up)
chain: MAERAALEELVKLQGERVRGLKQQKASAELIEEEVAKLLKLKAQLGPDESKQKFVLKTPKGTRDYSPRQMAVREKVFDVIIRCFKRHGAEVIDTPVFELKETLMGKYGEDSKLIYDLKDQGGELLSLRYDLTVPFARYLAMNKLTNIKRYHIAKVYRRDNPAMTRGRYREFYQCDFDIAGNFDPMIPDAECLKIMCEILSSLQIGDFLVKVNDRRILDGMFAICGVSDSKFRTICSSVDKLDKVSWEEVKNEMVGEKGLAPEVADRIGDYVQQHGGVSLVEQLLQDPKLSQNKQALEGLGDLKLLFEYLTLFGIDDKISFDLSLARGLDYYTGVIYEAVLLQTPAQAGEEPLGVGSVAAGGRYDGLVGMFDPKGRKVPCVGLSIGVERIFSIVEQRLEALEEKIRTTETQVLVASAQKKLLEERLKLVSELWDAGIKAELLYKKNPKLLNQLQYCEEAGIPLVAIIGEQELKDGVIKLRSVTSREEVDVRREDLVEEIKRRTGQPLCIC
B2: human FLAG-tagged Y454S histidyl-tRNA synthetase (HARS) (enzyme, UniProt P12081 1-509, looked up)
chain: B1 chain with Y454S

Columns and labels:
[1] = biological target: temperature sensitive HARS with the R362H substitution (UniProt P12081); assay: AUC
[2] = biological target: the molecule itself; assay: AUC

| Molecule | stoichiometry N [1] | stoichiometry N [2] |
| --- | --- | --- |
| temperature sensitive HARS with the R362H substitution (from UniProt P12081 1-509) (enzyme) | 2 | – |
| B1 | – | 2 |
| B2 | – | 2 |
